Test results from patent publication US12209122.

Target: the two scFvs (16-22-H05-sc02 and 16-22-H05-sc04)
Assay: competition ELISA, coated scFv, biotinylated TNFα, unlabeled TNFβ against unlabeled TNFα

B1: recombinant human TNFβ (Peprotech, Cat. No. 300-01B) (ligand, UniProt P01374 35-205, looked up)
chain: LPGVGLTPSAAQTARQHPKMHLAHSTLKPAAHLIGDPSKQNSLLWRANTDRAFLQDGFSLSNNSLLVPTSGIYFVYSQVVFSGKAYSPKATSSPLYLAHEVQLFSSQYPFHVPLLSSQKMVYPGLQEPWLHSMYHGAAFQLTQGDQLSTHTDGIPHLVLSPSTVFFGAFAL
  selectivity for binding to TNFα over TNFβ (fold): > 20000 fold
